According to patent US20030186329A1, “Use of substrate subtraction libraries to distinguish enzyme specificities” (The Scripps Research Institute, priority 1998, published 2003):

How the values were obtained:
[1] = molecular target: tissue plasminogen activator (t-PA) (human) (UniProt P00750); assay: inhibition kinetics, residual enzymatic activity
[2] = molecular target: urokinase-type plasminogen activator (u-PA) (human) (UniProt P00749); assay: inhibition kinetics, residual enzymatic activity
[3] = molecular target: urokinase-type plasminogen activator (u-PA) (human) (UniProt P00749); assay: ratio of the rate constants for inhibition of u-PA, wild type against variant
[4] = molecular target: tissue plasminogen activator (t-PA) (human) (UniProt P00750); assay: ratio of the rate constants for inhibition of t-PA and u-PA
[5] = molecular target: urokinase-type plasminogen activator (u-PA) (human) (UniProt P00749); assay: inhibition kinetics, residual enzymatic activity, indirect chromogenic assay
[6] = molecular target: urokinase-type plasminogen activator (u-PA) (human) (UniProt P00749); assay: ratio of the rate constants for inhibition of u-PA and t-PA

Sequence of tissue plasminogen activator (t-PA) (human) (P00750 36-562 limits assumed): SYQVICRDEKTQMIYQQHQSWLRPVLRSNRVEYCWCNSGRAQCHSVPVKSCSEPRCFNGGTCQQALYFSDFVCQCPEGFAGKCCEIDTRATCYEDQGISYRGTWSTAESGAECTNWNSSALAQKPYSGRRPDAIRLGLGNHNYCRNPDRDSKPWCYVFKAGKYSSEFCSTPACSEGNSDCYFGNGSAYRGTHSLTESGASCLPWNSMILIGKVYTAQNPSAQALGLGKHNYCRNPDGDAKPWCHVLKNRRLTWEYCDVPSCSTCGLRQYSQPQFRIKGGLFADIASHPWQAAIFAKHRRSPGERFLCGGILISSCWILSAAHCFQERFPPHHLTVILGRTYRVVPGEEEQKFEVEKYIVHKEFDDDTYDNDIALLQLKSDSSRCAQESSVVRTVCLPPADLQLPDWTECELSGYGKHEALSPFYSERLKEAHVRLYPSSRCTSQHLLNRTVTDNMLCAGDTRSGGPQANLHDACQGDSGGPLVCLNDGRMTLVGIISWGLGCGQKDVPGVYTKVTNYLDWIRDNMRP

second order rate constant for inhibition [1]	second order rate constant for inhibition [2]	fold reduction of activity against wild type PAI-1 [3]	t-PA/u-PA Selectivity [4]	second order rate constant for inhibition [5]	fold specificity toward u-PA over t-PA [6]	Substance
1.4e+06 M⁻¹ s⁻¹	100000 M⁻¹ s⁻¹	190 fold	14	–	–	PAI-1/P3R (from UniProt P05121 24-402)
–	–	–	–	1.9e+07 M⁻¹ s⁻¹	11.9 fold	wild type plasminogen activator inhibitor type 1 (PAI-1) (from UniProt P05121 24-402) (other; other documents disagree on this pair)
1.4e+06 M⁻¹ s⁻¹	29000 M⁻¹ s⁻¹	–	48	–	–	PAI-1/P4Q, P3R (from UniProt P05121 24-402)
